Data from US20220135652A1 (FERRING B V, published 2022).

Target: T1, IL-6/sIL-6R complex (human, UniProt P05231 30-212; P08887 20-355, limits assumed)
T1 construct: Complex of IL-6 and soluble IL-6R; also called IL-6/sIL-6R trans-signalling complex
Assay: method not stated; value given in Example 4 and used to calculate occupancy

B1: Peptide 1 (the polypeptide of SEQ ID NO: 1 in its active dimerized form) (Fc fusion)
chain: ELLDPCGYISPESPVVQLHSNFTAVCVLKEKCMDYFHVNANYIVWKTNHFTIPKEQYTIINRTASSVTFTDIASLNIQLTCNILTFGQLEQNVYGITIISGLPPEKPKNLSCIVNEGKKMRCEWDGGRETHLETNFTLKSEWATHKFADCKAKRDTPTSCTVDYSTVYFVNIEVWVEAENALGKVTSDHINFDPVYKVKPNPPHNLSVINSEELSSILKLTWTNPSIKSVIILKYNIQYRTKDASTWSQIPPEDTASTRSSFTVQDLKPFTEYVFRIRCMKEDGKGYWSDWSEEASGITYEDRPSKAPSFWYKIDPSHTQGYRTVQLVWKTLPPFEANGKILDYEVTLTRWKSHLQNYTVNATKLTVNLTNDRYLATLTVRNLVGKSDAAVLTIPACDFQATHPVMDLKAFPKDNMLWVEWTTPRESVKKYILEWCVLSDKAPCITDWQQEDGTVHRTYLRGNLAESKCYLITVTPVYADGPGSPESIKAYLKQAPPSKGPTVRTKKVGKNEAVLEWDQLPVDVQNGFIRNYTIFYRTIIGNETAVNVDSSHTEYTLSSLTSDTLYMVRMAAYTDEGGKDGPEFTFTTPKFAQGEDKTHTCPPCPAPEAEGAPSVFLFPPKPKDTLMISRTPEVTCVVVDVSHEDPEVKFNWYVDGVEVHNAKTKPREEQYNSTYRVVSVLTVLHQDWLNGKEYKCKVSNKALPAPIEKTISKAKGQPREPQVYTLPPSREEMTKNQVSLTCLVKGFYPSDIAVEWESNGQPENNYKTTPPVLDSDGSFFLYSKLTVDKSRWQQGNVFSCSVMHEALHNHYTQKSLSLSPGK
notes: Produced in CHO/dhfr- cells; 10 N-glycosylation sites per chain; also called gp130-Fc fusion dimer
Kd: 0.13 nM
